In patent US20200002421A1, “ANTI-B7-H3 ANTIBODIES AND ANTIBODY DRUG CONJUGATES” (AbbVie Inc., priority 2016, published 2020):

Tests used:
[1] = target: T1, huB7-H3 (Homo sapiens, UniProt Q5ZPR3); assay: Biacore T200 SPR binding kinetics, mAb capture; conditions: Table 3
T1 construct: His tag (6xHis) (C)
T1 sequence (Q5ZPR3 with tags, fused parts or gaps): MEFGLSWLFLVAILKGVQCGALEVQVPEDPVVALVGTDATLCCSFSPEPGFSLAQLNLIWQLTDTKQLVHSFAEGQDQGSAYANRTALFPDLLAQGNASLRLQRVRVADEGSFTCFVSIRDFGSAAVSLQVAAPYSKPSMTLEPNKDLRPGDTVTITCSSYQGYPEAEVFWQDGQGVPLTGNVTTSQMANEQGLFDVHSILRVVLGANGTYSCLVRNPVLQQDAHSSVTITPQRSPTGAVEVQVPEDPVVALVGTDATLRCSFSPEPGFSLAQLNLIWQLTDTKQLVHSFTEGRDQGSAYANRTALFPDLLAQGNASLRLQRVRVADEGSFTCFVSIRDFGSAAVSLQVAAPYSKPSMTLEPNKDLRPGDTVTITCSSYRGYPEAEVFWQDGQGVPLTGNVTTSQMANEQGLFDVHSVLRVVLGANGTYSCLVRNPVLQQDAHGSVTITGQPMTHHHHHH
Procedure: The binding affinity of the purified anti-B7-H3 monoclonal antibodies was determined by surface […]. […] The binding kinetics were derived from SPR measurements using a Biacore T200 instrument and a mAb capture approach (as described in the materials and methods below).
Biacore T200 SPR instruments were used to measure the binding kinetics of human B7-H3 (4Ig-B7-H3 variant) (analyte) binding to various mAbs (ligands). The assay format was Fc-based capture via immobilized anti-mouse (Fc) (Pierce 31170) or immobilized anti-human (Fc) (Pierce 31125). A standard amine coupling protocol was employed to immobilize the capture reagents via primary amines to the carboxy-methyl (CM) dextran surface of CM5 sensorchips (Biacore); capture antibodies were coupled to a level of approximately 5000 RU. For binding kinetic measurements the assay buffer was HBS-EP+(Biacore): 10 mM Hepes, pH7.4, 150 mM NaCl, 3 mM EDTA, 0.05% polysorbate 20. During the assay, all measurements were referenced against the capture surface alone. Each assay cycle consisted of the following steps: 1) Capture of ligand to approximately 50 RU; 2) Analyte injection over both reference and test surface, 240 μL at 80 μL/min, after which the dissociation was monitored for 900 seconds at 80 μL/min; 3) Regeneration of capture surface with low pH glycine. For kinetic determinations analyte injections were 3-point, 9-fold dilution series of 900 nM, 100 nM and 11.11 nM, buffer only injections were included for secondary referencing. Data were processed and fit to a 1:1 binding model using Biacore T200 Evaluation Software to determine the binding kinetic rate constants, ka (on-rate) and kd (off-rate), and the equilibrium dissociation constant (affinity, KD).

[2] = target: T2, human B7-H3 (Homo sapiens, UniProt Q5ZPR3); assay: Epitope grouping by pair-wise Biacore SPR binding; conditions: simultaneous binding assay, FIG. 1
T2 construct: His tag (6xHis) (C)
T2 sequence (Q5ZPR3 with tags, fused parts or gaps): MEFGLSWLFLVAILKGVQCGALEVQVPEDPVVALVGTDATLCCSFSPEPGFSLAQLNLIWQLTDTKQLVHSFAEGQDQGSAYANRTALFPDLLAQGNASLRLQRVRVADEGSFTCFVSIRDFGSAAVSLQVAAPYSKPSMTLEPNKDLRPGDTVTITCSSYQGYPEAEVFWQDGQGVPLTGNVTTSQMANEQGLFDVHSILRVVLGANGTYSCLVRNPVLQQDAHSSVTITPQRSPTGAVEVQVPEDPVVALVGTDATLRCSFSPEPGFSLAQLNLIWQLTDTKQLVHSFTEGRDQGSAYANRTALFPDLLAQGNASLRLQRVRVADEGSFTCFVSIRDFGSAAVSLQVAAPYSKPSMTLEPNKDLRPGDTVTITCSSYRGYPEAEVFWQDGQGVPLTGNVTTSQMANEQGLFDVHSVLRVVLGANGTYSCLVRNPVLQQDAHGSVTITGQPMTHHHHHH
Description: Pair-wise binding assays performed on Biacore T200 SPR instruments were used to determine the relative epitope grouping for the murine anti-B7-H3 mAbs as described in the methods below. […] Epitope groups are represented as individual ovals, some of which overlap with each other. Antibodies in different epitope groups can bind to B7-H3 simultaneously and likely bind to different epitopes while antibodies within a given epitope group cannot bind to B7-H3 simultaneously and likely bind to overlapping epitopes. The grouping information was derived from a simultaneous binding assay as described in materials and methods. Ab3, Ab4, Ab5, Abl 1, Ab12, and Ab8 groupings were ambiguous
Pair-wise binding assays performed on Biacore T200 SPR instruments were used to determine the relative epitope grouping for a series of anti-B7-H3 mAbs. The assay format was Fc-based capture via immobilized anti-mouse (Fc) (Pierce 31170) or immobilized anti-human (Fc) (Pierce 31125). A standard amine coupling protocol was employed to immobilize the capture reagents via primary amines to the carboxy-methyl (CM) dextran surface of CM5 sensorchips (Biacore); capture antibodies were coupled to a level of approximately 2000 RU. Epitope grouping measurements were done at 12° C. (low temperature allows for grouping information on fast off-rate mAbs), the assay buffer was HBS-EP+(Biacore): 10 mM Hepes, pH7.4, 150 mM NaCl, 3 mM EDTA, 0.05% polysorbate 20. Each assay cycle consisted of the following steps in a four flowcell system: 1) separate test mAbs were captured in flowcells 2, 3 & 4 (flowcell 1 was reference, no test mAb); 2) all 4 flowcells were then blocked by injection with isotype control mAb or isotype mAb cocktail at 50 μg/mL; 3) all 4 flowcells were then injected with antigen or buffer only (buffer only is for double referencing, done for each mAb pair individually); 4) all 4 flowcells were then injected with 2nd test mAb at 10 μg/mL; 5) all 4 flowcells were then regenerated with glycine, pH1.5. The assay was done for each test mAb pair in reciprocal orientations. Simultaneous binding was evaluated examining the ratio of the 2nd test mAb response to the Ag response (RUmAb2/RUAg); if this ratio was equal to or greater than 0.2 the interaction was scored as a simultaneous binder. From this pair-wise binding assay data a “venn” style diagram was constructed manually to depict relative epitope groupings.

[3] = Conjugation observation (precipitation after conjugation, Method A); format: physicochemical; conditions: conjugated to synthon CZ
Procedure: Table 6 provides cell surface binding and cytotoxicity activity of anti-B7-H3 chimera ADCs against breast cancer cell HCC38 expressing human B7-H3.
A solution of Bond-Breaker™ tris(2-carboxyethyl)phosphine (TCEP) solution (10 mM, 0.017 mL) was added to a solution of antibody (10 mg/mL, 1 mL) preheated to 37° C. The reaction mixture was kept at 37° C. for 1 hour. The solution of reduced antibody was added to a solution of synthon (3.3 mM, 0.160 mL in DMSO) and gently mixed for 30 minutes. The reaction solution was loaded onto a desalting column (PD10, washed with Dulbecco's phosphate-buffered saline [DPBS] 3× before use), followed by DPBS (3 mL). The purified ADC solution was filtered through a 0.2 micron, low protein-binding 13 mm syringe-filter and stored at 4° C.

[4] = test system: HCC38 cell line; assay: In vitro cell viability assay (CellTiter-Glo), HCC38; format: cell-based, human; conditions: conjugated to synthon CZ
Procedure: The tumor cell lines HCC38 (breast cancer), NCI-H1650 (NSCLC) and NCI-H847 (small cell lung cancer cell line) were obtained from American Type Culture Collection (ATCC). Cells were grown in 96-well culture plates using recommended growth media overnight at a density of 5×10^3 (HCC38) or 20×10^3 (NCI-H847) or 40×10^3 (NCI-H1650) per well. The following day, treatments were added in fresh media to triplicate wells. Cellular viability was determined 5 days later using the CellTiter-Glo Luminescent Cell Viability Assay kit (Promega), as directed in the manufacturer's protocol. Cell viability was assessed as percentage of control untreated cells.

Row | Molecule | huB7-H3 ka(1/Ms) [1] [M⁻¹ s⁻¹] | epitope grouping [2] | precipitation following conjugation to synthon CZ (in words) [3] | cytotoxicity in cells expressing human B7-H3 / HCC38 cell line (in words) [4]
1 | Ab12: mouse hybridoma anti-B7-H3 monoclonal antibody, mouse IgG1/k (antibody, V domains shown) VH: EVQLVESGGGLVKPGGSLKLSCAASGFTFSSYAMSWVRQTPEKRLEWVATISSGTNYTYYPDSVKGRFTISRDNAKNTLYLQMTSLRSEDTAMYYCARQGRYSWIAYWGQGTLVTVSA VL: DIVLTQSPASLAVSLGQRATISCRASKSVSTSDYSYMHWNQQKPGQPPKLLIYLASNLESGVPARFSGSGSGTDFTLNIHPVEEEDAATYYCQHSRELLTFGAGTKLELK | 38000 | ambiguous | – | –
2 | chAb6: chimeric anti-B7-H3 antibody huIgG1/k, parental hybridoma Ab6; VH SEQ ID NO: 56, VL SEQ ID NO: 60 (antibody, V domains shown, human IgG1/kappa constant regions; Synthetic chAb6 VH amino acid sequence; Synthetic chAb6 VL amino acid sequence) VH: QVQLQQSGAELMKPGASVKISCKATGYTFSRYWIEWVKQRPGHGLEWIGEILPGSGSTNYNEKFKGKATFTADTSSNTAYMQVSSLTSEDSAVHYCARRGYGYVPYALDYWGQGTSVTVSS VL: EIQMTQTTSSLSASLGDRVTISCRASQDISNSLNWYQQKPDGTVNLLIYYTSRLYSGVPSRFSGSGSGTDYSLTISNLEQEDIATYFCQQGNTLPYTFGGGTKLEIK | – | – | precipitated | weak cytotoxicity
3 | Ab11: mouse hybridoma anti-B7-H3 monoclonal antibody, mouse IgG1/k (antibody, V domains shown) VH: EVKLVESGGGLVQPGGSLRLSCATSGFTFTNYYMSWVRQPPGKALEWLGFIRNKANDYTTEYSASVKGRFTISRDNSQSILYLQMNTLRAEDSATYYCARESPGNPFAYWGQGTLVTVSA VL: DIVMTQSPSSLTVTAGEKVTMTCKSSQSLLNSGTQKNFLTWYQQKPGQPPKLLIYWASTRESGVPDRFTGSGSGTDFTLTISSVQAEDLAVYFCQNDYIYPLTFGAGTKLELK | 20000 | ambiguous | – | –
4 | chAb2: chimeric anti-B7-H3 antibody huIgG1/k, parental hybridoma Ab2; VH SEQ ID NO: 1, VL SEQ ID NO: 5 (antibody, V domains shown, human IgG1/kappa constant regions; Synthetic chAb2 VH amino acid sequence; Synthetic chAb2 VL amino acid sequence) VH: QVQLQQPGAELVKPGASVKLSCKASGYTFTSYWMHWVKQRPGQGLEWIGMIHPDSGTTNYNEKFRSKATLTVDKSSSTAYMQLSSLTSEDSAVYYCAVYYGSTYWYFDVWGTGTTVTVSS VL: DVVMTQTPLSLPVSLGDQAYISCRSSQSLVHINGNTYLHWYRQKPGQSPKLLIYKVSNRFSGVPDRFSGSGSGTDFTLKISRVEAEDLGVYFCSQSTHFPFTFGSGTKLEIK | – | – | precipitated | weak cytotoxicity
5 | Ab8: mouse hybridoma anti-B7-H3 monoclonal antibody, mouse IgG1/k (antibody, V domains shown) VH: EVKLVESGGGLVKPGGSLKLSCAASGFTFSSYGMSWVRQTPEKRLEWVATISGGGNYTYCPDSVKGRFTISRDNAKNNLYLQMSSLRSEDTALYYCTRQRGYDYHYAMDFWGQGTSVTVSS VL: DIQMTQSPASLSVSVGETVTITCRASENIYSNLAWHQQKQGKSPQLLVYAATNLADGVPSRFSGNGSDTQYSLKINSLQSEDFGSYFCQNFWGTSWTFGGGTKLEIK | 58000 | ambiguous | – | –
